The results in this text go back to PMC10786891, “Massively parallel profiling of RNA-targeting CRISPR-Cas13d”.

The labels stand for the following.
T1: EsCas13d, nuclease-dead (Eubacterium siraeum, UniProt B0MS50, R295A;H300A;R849A;H854A)
T1 sequence: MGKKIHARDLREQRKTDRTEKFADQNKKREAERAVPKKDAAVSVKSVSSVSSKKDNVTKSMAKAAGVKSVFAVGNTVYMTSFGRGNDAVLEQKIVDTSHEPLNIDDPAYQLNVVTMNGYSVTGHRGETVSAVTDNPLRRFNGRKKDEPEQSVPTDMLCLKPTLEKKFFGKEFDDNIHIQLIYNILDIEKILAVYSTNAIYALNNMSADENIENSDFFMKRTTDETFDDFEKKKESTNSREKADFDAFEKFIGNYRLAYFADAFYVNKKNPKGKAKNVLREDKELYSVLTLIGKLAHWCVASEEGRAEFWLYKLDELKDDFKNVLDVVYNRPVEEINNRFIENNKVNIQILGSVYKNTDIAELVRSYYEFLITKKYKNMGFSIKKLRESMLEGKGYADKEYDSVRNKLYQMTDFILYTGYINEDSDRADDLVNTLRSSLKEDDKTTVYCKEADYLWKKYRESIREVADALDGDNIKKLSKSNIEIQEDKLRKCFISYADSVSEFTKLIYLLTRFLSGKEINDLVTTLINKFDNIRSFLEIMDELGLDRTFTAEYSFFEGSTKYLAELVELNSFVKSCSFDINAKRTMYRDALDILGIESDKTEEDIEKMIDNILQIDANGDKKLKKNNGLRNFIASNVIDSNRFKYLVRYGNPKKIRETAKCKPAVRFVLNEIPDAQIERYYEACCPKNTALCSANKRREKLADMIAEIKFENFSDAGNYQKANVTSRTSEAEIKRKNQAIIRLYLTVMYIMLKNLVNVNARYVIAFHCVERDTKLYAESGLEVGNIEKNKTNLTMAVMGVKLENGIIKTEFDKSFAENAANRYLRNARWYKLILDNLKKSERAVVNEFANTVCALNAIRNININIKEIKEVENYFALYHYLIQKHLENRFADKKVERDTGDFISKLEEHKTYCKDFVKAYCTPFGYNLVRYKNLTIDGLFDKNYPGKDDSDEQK

B1: target 2 MT 5'PFS GCC 3'PFS AAG (mixed)
RNA 1: CACCCGUGCAAAAUUGCAGGGGUCUAAAACCUUCUCCAAAUUGUUUCAUCCU
RNA 2: GGGAAUGGAUCCACAUCUACGAAUUCGCCAGGAUGAAACAAUUUGGAGAAGAAGAGAUCGGAAGAGCACACGU
B2: target 2 MT 5'PFS UUU 3'PFS CUC (mixed)
RNA 1: CACCCGUGCAAAAUUGCAGGGGUCUAAAACCUUCUCCAAAUUGUUUCAUCCU
RNA 2: GGGAAUGGAUCCACAUCUACGAAUUCUUUAGGAUGAAACAAUUUGGAGAAGCUCAGAUCGGAAGAGCACACGU
B3: target 2 MT 5'PFS UAA 3'PFS AAA (mixed)
RNA 1: CACCCGUGCAAAAUUGCAGGGGUCUAAAACCUUCUCCAAAUUGUUUCAUCCU
RNA 2: GGGAAUGGAUCCACAUCUACGAAUUCUAAAGGAUGAAACAAUUUGGAGAAGAAAAGAUCGGAAGAGCACACGU
B4: target 2 MT 5'PFS GCA 3'PFS CCG (mixed)
RNA 1: CACCCGUGCAAAAUUGCAGGGGUCUAAAACCUUCUCCAAAUUGUUUCAUCCU
RNA 2: GGGAAUGGAUCCACAUCUACGAAUUCGCAAGGAUGAAACAAUUUGGAGAAGCCGAGAUCGGAAGAGCACACGU
B5: target 2 MT 5'PFS CGA 3'PFS ACU (mixed)
RNA 1: CACCCGUGCAAAAUUGCAGGGGUCUAAAACCUUCUCCAAAUUGUUUCAUCCU
RNA 2: GGGAAUGGAUCCACAUCUACGAAUUCCGAAGGAUGAAACAAUUUGGAGAAGACUAGAUCGGAAGAGCACACGU
B6: target 2 MT 5'PFS GAU 3'PFS UAU (mixed)
RNA 1: CACCCGUGCAAAAUUGCAGGGGUCUAAAACCUUCUCCAAAUUGUUUCAUCCU
RNA 2: GGGAAUGGAUCCACAUCUACGAAUUCGAUAGGAUGAAACAAUUUGGAGAAGUAUAGAUCGGAAGAGCACACGU
B7: target 2 MT 5'PFS GUC 3'PFS CAG (mixed)
RNA 1: CACCCGUGCAAAAUUGCAGGGGUCUAAAACCUUCUCCAAAUUGUUUCAUCCU
RNA 2: GGGAAUGGAUCCACAUCUACGAAUUCGUCAGGAUGAAACAAUUUGGAGAAGCAGAGAUCGGAAGAGCACACGU
B8: target 2 MT 5'PFS UAA 3'PFS AAC (mixed)
RNA 1: CACCCGUGCAAAAUUGCAGGGGUCUAAAACCUUCUCCAAAUUGUUUCAUCCU
RNA 2: GGGAAUGGAUCCACAUCUACGAAUUCUAAAGGAUGAAACAAUUUGGAGAAGAACAGAUCGGAAGAGCACACGU
B9: target 2 MT 5'PFS AUA 3'PFS CCA (mixed)
RNA 1: CACCCGUGCAAAAUUGCAGGGGUCUAAAACCUUCUCCAAAUUGUUUCAUCCU
RNA 2: GGGAAUGGAUCCACAUCUACGAAUUCAUAAGGAUGAAACAAUUUGGAGAAGCCAAGAUCGGAAGAGCACACGU
B10: target 2 MT 5'PFS CGC 3'PFS AGG (mixed)
RNA 1: CACCCGUGCAAAAUUGCAGGGGUCUAAAACCUUCUCCAAAUUGUUUCAUCCU
RNA 2: GGGAAUGGAUCCACAUCUACGAAUUCCGCAGGAUGAAACAAUUUGGAGAAGAGGAGAUCGGAAGAGCACACGU
B11: target 2 MT 5'PFS GCA 3'PFS CCA (mixed)
RNA 1: CACCCGUGCAAAAUUGCAGGGGUCUAAAACCUUCUCCAAAUUGUUUCAUCCU
RNA 2: GGGAAUGGAUCCACAUCUACGAAUUCGCAAGGAUGAAACAAUUUGGAGAAGCCAAGAUCGGAAGAGCACACGU
B12: target 2 MT 5'PFS GAC 3'PFS UCC (mixed)
RNA 1: CACCCGUGCAAAAUUGCAGGGGUCUAAAACCUUCUCCAAAUUGUUUCAUCCU
RNA 2: GGGAAUGGAUCCACAUCUACGAAUUCGACAGGAUGAAACAAUUUGGAGAAGUCCAGAUCGGAAGAGCACACGU
B13: target 2 MT 5'PFS UAA 3'PFS AAG (mixed)
RNA 1: CACCCGUGCAAAAUUGCAGGGGUCUAAAACCUUCUCCAAAUUGUUUCAUCCU
RNA 2: GGGAAUGGAUCCACAUCUACGAAUUCUAAAGGAUGAAACAAUUUGGAGAAGAAGAGAUCGGAAGAGCACACGU
B14: target 2 MT 5'PFS UUU 3'PFS CUA (mixed)
RNA 1: CACCCGUGCAAAAUUGCAGGGGUCUAAAACCUUCUCCAAAUUGUUUCAUCCU
RNA 2: GGGAAUGGAUCCACAUCUACGAAUUCUUUAGGAUGAAACAAUUUGGAGAAGCUAAGAUCGGAAGAGCACACGU
B15: target 2 MT 5'PFS CGA 3'PFS ACG (mixed)
RNA 1: CACCCGUGCAAAAUUGCAGGGGUCUAAAACCUUCUCCAAAUUGUUUCAUCCU
RNA 2: GGGAAUGGAUCCACAUCUACGAAUUCCGAAGGAUGAAACAAUUUGGAGAAGACGAGAUCGGAAGAGCACACGU
B16: target 2 MT 5'PFS GAG 3'PFS CUU (mixed)
RNA 1: CACCCGUGCAAAAUUGCAGGGGUCUAAAACCUUCUCCAAAUUGUUUCAUCCU
RNA 2: GGGAAUGGAUCCACAUCUACGAAUUCGAGAGGAUGAAACAAUUUGGAGAAGCUUAGAUCGGAAGAGCACACGU
B17: target 2 MT 5'PFS CUG 3'PFS AGU (mixed)
RNA 1: CACCCGUGCAAAAUUGCAGGGGUCUAAAACCUUCUCCAAAUUGUUUCAUCCU
RNA 2: GGGAAUGGAUCCACAUCUACGAAUUCCUGAGGAUGAAACAAUUUGGAGAAGAGUAGAUCGGAAGAGCACACGU
B18: target 2 MT 5'PFS GUC 3'PFS CAA (mixed)
RNA 1: CACCCGUGCAAAAUUGCAGGGGUCUAAAACCUUCUCCAAAUUGUUUCAUCCU
RNA 2: GGGAAUGGAUCCACAUCUACGAAUUCGUCAGGAUGAAACAAUUUGGAGAAGCAAAGAUCGGAAGAGCACACGU
B19: target 2 MT 5'PFS CGC 3'PFS AGC (mixed)
RNA 1: CACCCGUGCAAAAUUGCAGGGGUCUAAAACCUUCUCCAAAUUGUUUCAUCCU
RNA 2: GGGAAUGGAUCCACAUCUACGAAUUCCGCAGGAUGAAACAAUUUGGAGAAGAGCAGAUCGGAAGAGCACACGU
B20: target 2 MT 5'PFS CUG 3'PFS AGA (mixed)
RNA 1: CACCCGUGCAAAAUUGCAGGGGUCUAAAACCUUCUCCAAAUUGUUUCAUCCU
RNA 2: GGGAAUGGAUCCACAUCUACGAAUUCCUGAGGAUGAAACAAUUUGGAGAAGAGAAGAUCGGAAGAGCACACGU
B21: target 2 MT 5'PFS GUC 3'PFS CAC (mixed)
RNA 1: CACCCGUGCAAAAUUGCAGGGGUCUAAAACCUUCUCCAAAUUGUUUCAUCCU
RNA 2: GGGAAUGGAUCCACAUCUACGAAUUCGUCAGGAUGAAACAAUUUGGAGAAGCACAGAUCGGAAGAGCACACGU
B22: target 2 MT 5'PFS UUU 3'PFS CUG (mixed)
RNA 1: CACCCGUGCAAAAUUGCAGGGGUCUAAAACCUUCUCCAAAUUGUUUCAUCCU
RNA 2: GGGAAUGGAUCCACAUCUACGAAUUCUUUAGGAUGAAACAAUUUGGAGAAGCUGAGAUCGGAAGAGCACACGU
B23: target 2 MT 5'PFS AUA 3'PFS CCG (mixed)
RNA 1: CACCCGUGCAAAAUUGCAGGGGUCUAAAACCUUCUCCAAAUUGUUUCAUCCU
RNA 2: GGGAAUGGAUCCACAUCUACGAAUUCAUAAGGAUGAAACAAUUUGGAGAAGCCGAGAUCGGAAGAGCACACGU
B24: target 2 MT 5'PFS CUG 3'PFS AGC (mixed)
RNA 1: CACCCGUGCAAAAUUGCAGGGGUCUAAAACCUUCUCCAAAUUGUUUCAUCCU
RNA 2: GGGAAUGGAUCCACAUCUACGAAUUCCUGAGGAUGAAACAAUUUGGAGAAGAGCAGAUCGGAAGAGCACACGU
B25: target 2 MT 5'PFS UAA 3'PFS AAU (mixed)
RNA 1: CACCCGUGCAAAAUUGCAGGGGUCUAAAACCUUCUCCAAAUUGUUUCAUCCU
RNA 2: GGGAAUGGAUCCACAUCUACGAAUUCUAAAGGAUGAAACAAUUUGGAGAAGAAUAGAUCGGAAGAGCACACGU
B26: target 1 insA 3' of 10,insG 3' of 6 (mixed)
RNA 1: CACCCGUGCAAAAAUGCAGGGGUCUAAAACUGAGCGGAUAACCUCUCUAUGG
RNA 2: GGGAAUGGAUCCACAUCUACGAAUUCGUACCAUAGAGAGGUUAAUCCGGCUCACCGAGAUCGGAAGAGCACACGU
B27: target 1 A14G,C22U (mixed)
RNA 1: CACCCGUGCAAAAAUGCAGGGGUCUAAAACUGAGCGGAUAACCUCUCUAUGG
RNA 2: GGGAAUGGAUCCACAUCUACGAAUUCGUAUCAUAGAGGGGUUAUCCGCUCACCGAGAUCGGAAGAGCACACGU

What is called Kd is the equilibrium constant for the complex coming apart. A higher Kd goes with a looser complex.

This data set addresses T1, EsCas13d, nuclease-dead. Briefly: crRNA (strand 1, pre-loaded); Mg2+; 40 mM Tris-HCl pH 7.5, 150 mM NaCl, 6 mM MgCl2, 1 mM DTT, 0.1% Tween-20, 0.2 mg/ml BSA; 25 C; 10 min per concentration, then washed. The note with it: tags: His6-TwinStrep-SUMO cleaved; N-terminal SNAP kept (SNAP-Surface 488); label: 3' end held by stalled T7 RNA polymerase.
B1 gave a Kd of 22 ± 5 nM.

In the case of B2, the Kd was 8.4 ± 0.9 nM. Compared with the last molecule, the Kd is about 2.6-fold lower.

Take B3: the Kd came out at 2.9 ± 0.8 nM.

Molecule B4 showed a Kd of 10.3 ± 1.4 nM.

For the molecule B5, the Kd came out at 17 ± 7 nM.

B6 came in with a Kd of 16 ± 4 nM.

B7 gave a Kd of 17.9 ± 2.4 nM.

Turning to B8, the Kd was 6.6 ± 1 nM. This Kd is about 2.7-fold lower than that of the molecule before.

Turning to B9, binding was put at a Kd of 15.9 ± 2.5 nM.

B10 displayed a Kd of 3.4 ± 0.5 nM.

With B11, the Kd is around 27 nM.

As for B12, the Kd was 50 ± 15 nM.

Molecule B13 showed a Kd of 4.5 ± 0.6 nM.

B14: binding was characterised by a dissociation constant (Kd) of 16 ± 3.2 nM.

The molecule B15 had a Kd of 6.9 ± 1 nM.

For the molecule B16, binding was put at a Kd of 8.9 ± 0.7 nM.

On to B17, for which the Kd turned out to be 3.7 ± 0.6 nM. Compared with the last molecule, the Kd is about 2.4-fold lower.

B18 yielded a Kd of 9.8 ± 1.7 nM. Compared with the last molecule, the Kd is about 2.6-fold higher.

For the molecule B19, the Kd was 6.1 ± 1.5 nM.

On to B20, for which the Kd is 2.16 ± 0.2 nM.

B21 came in with a Kd of 13.4 ± 2.5 nM.

Molecule B22 gave a Kd of 7.7 ± 1 nM.

B23 showed a Kd of 8.5 ± 0.8 nM.

Turning to B24, the Kd stood at 2.52 ± 0.2 nM.

As for B25, the affinity, expressed as Kd, was 4.7 ± 0.6 nM.

B26: the Kd was determined as 9.9 ± 0.4 nM.

On to B27, for which the Kd is around 49 nM.
